As usually defined, the Kd is the free concentration of one partner at which half of the binding sites on the other are occupied at equilibrium, for simple one-to-one binding.

Among the data in PMC9001736 are Kd values, retold here.

The target in assay [1] is ZZ domain of HERC2 (HERC2ZZ, aa 2702–2755 with additional tryptophan at the C-terminus) (human) (UniProt O95714). Put plainly: other fluorescence titration; tryptophan fluorescence; 1 μM HERC2ZZ with increasing REEE peptide; 25 °C; 20 mM Tris (pH 6.8), 150 mM NaCl, 2 mM DTT; excitation 295 nm.
Assay [2] has the same target. Description: other fluorescence titration; tryptophan fluorescence; 1 μM HERC2ZZ with 1 μM HERC2DOC present, increasing REEE peptide; 25 °C; 20 mM Tris (pH 6.8), 150 mM NaCl, 2 mM DTT.

Sequence of ZZ domain of HERC2 (HERC2ZZ, aa 2702–2755 with additional tryptophan at the C-terminus) (human) (O95714 other isoform, or with tags, fused parts or gaps): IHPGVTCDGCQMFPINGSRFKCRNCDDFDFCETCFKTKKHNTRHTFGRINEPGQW

On to “REEE peptide (mimetic of the Nt-R cargo degradation signal)”, for which the Kd in assay [1] was determined as 1.2 µM; in assay [2] it was 1 µM.
